Source: publication doi:10.1101/2022.01.09.475535 (bioRxiv, 2022)
Changes are numbered by the printed parent chain. Names may count otherwise. One block for each binder: values may come before it.

Target: T1, SF3B1 ULM5 peptide (residues 333-351), wild type (human, UniProt O75533-1 333-351)
T1 peptide: KRKSRWDETPASQMGGSTP
Assay: ITC

fold increase of affinity against the ULM5 peptide with the longer N-terminus: 2 fold
B1: U2AF2 UHM (U2AF homology motif domain of U2AF2) (domain or fragment)
chain: TEVLCLMNMVLPEELLDDEEYEEIVEDVRDECSKYGLVKSIEIPRPVDGVEVPGCGKIFVEFTSVFDCQKAMQGLTGRKFANRVVVTKYCDPDSYHRRDFW

fold decrease of affinity against the wild-type U2AF2 UHM: 4 fold
B2: U2AF2 UHM K453A (domain or fragment)
chain: B1 chain with K79A
